Laboratory results from US20190023748A1 (NAVIGEN, published 2019).
Bridge positions count the residues as written; N and C are the ends. Square brackets hold non-standard residues; d marks the D form. Primed or numbered codes have the meaning given here. Side chains are listed from the residue outwards. PEG4″ = PEG chain having 4 ethylene glycol repeat units; 4‑arm scaffold = not defined here

B1: 40 kD PEG-PEG24-PIE12 trimer (peptide)
peptide: Ac-[dH][dP][dC][dD][dY][dP][dE][dW][dQ][dW][dL][dC][dE][dL]GK-NH2
modifications: disulfide 3-12 (inferred); not fully specified (residue 16); also: trimer: three PIE12 monomers on 4-arm scaffold, fourth arm PEG24 carrying 40 kDa Y-branched PEG
B2: Palmitate-conjugated PIE12-trimer (peptide)
peptide: Ac-[dH][dP][dC][dD][dY][dP][dE][dW][dQ][dW][dL][dC][dE][dL]G[dK]([PEG4″-4‑arm scaffold])-NH2
modifications: disulfide 3-12 (inferred); reading uncertain; also: trimer: three PIE12 monomers on 4-arm scaffold, fourth arm PEG24 with D-cysteine bridge carrying palmitate
B3: CPT24-5 kD (peptide)
peptide: Ac-[dH][dP][dC][dD][dY][dP][dE][dW][dQ][dW][dL][dC][dE][dL]G[dK]([PEG4″-4‑arm scaffold])-NH2
modifications: disulfide 3-12 (inferred); reading uncertain; also: PIE12 trimer on 4-arm scaffold, fourth arm 5 kDa linear polydisperse PEG with thiocholesterol

Key:
Assay in all cases: cell-based or functional assay
[1] = target: HIV-1 gp41 of strain JRFL (HIV-1 strain JRFL)
[2] = target: T1, HIV-1 gp41 of strain HXB2 (HIV-1 strain HXB2, UniProt P04578 512-856)
[3] = target: HIV-1 gp41 of strain JRFL (HIV-1 strain JRFL); remark: listed apart in the source
[4] = target: T1, HIV-1 gp41 of strain HXB2; remark: listed apart in the source

Binder | Antiviral potency, IC50, JRFL pseudovirion entry assay [1] [nM] | Antiviral potency, IC50, HXB2 pseudovirion entry assay [2] [nM] | fold reduction of potency against unconjugated PIE12-trimer (JRFL) [3] [fold] | fold reduction of potency against unconjugated PIE12-trimer (HXB2) [4] [fold] | fold increase in potency against unconjugated PIE12-trimer (JRFL) [3] [fold] | fold increase in potency against unconjugated PIE12-trimer (HXB2) [4] [fold]
B1 | 71 | 9.5 | 34 | 13 |  | 
B2 | 0.54 | 0.225 |  |  | 3 to 4 | 3 to 4
B3 | 0.026 |  |  |  |  | 
